Measurements reported in patent US20230390362A1, “USE OF TRIGONAL AGONIST HAVING ACTIVITIES TO ALL OF GLUCAGON, GLP-1, AND GIP RECEPTORS IN TREATMENT OF SEQUELAE FOLLOWING RESPIRATORY INFECTIOUS DISEASES” (HANMI PHARM. CO., LTD., priority 2020, published 2023).
Positions of bridges follow the written chain, without caps; N, C: chain ends. Non-standard residues stand in square brackets, D forms with d. No end group written: not given here. *: point of attachment. Acetyl(2-(4-imidazolyl)) = O=C(Cc1c[nH]cn1)*; Aib = CC(C)(N)C(=O)O

T1: human GIP receptor (human, UniProt P48546 22-466)
T1 sequence (looked up): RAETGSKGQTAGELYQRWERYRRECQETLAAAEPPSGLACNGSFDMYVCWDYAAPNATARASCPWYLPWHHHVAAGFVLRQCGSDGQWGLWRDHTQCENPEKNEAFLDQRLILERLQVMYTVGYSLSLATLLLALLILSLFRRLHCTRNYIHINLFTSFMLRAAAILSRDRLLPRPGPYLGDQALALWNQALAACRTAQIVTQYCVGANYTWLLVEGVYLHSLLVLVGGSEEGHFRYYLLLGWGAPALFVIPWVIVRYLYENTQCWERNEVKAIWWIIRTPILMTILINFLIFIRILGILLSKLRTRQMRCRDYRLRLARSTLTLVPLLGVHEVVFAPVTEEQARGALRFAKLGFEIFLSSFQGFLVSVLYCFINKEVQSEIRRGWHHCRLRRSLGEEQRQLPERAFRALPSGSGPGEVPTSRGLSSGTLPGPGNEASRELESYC


Key:
Test in all cases: cell-based or functional assay
human GCG receptor = human GCG receptor (human, UniProt P47871 26-477)
human GIP receptor = biological target: T1, human GIP receptor
human GLP-1 receptor = human GLP-1 receptor (human, UniProt P43220 24-463)

Chain of human GCG receptor (P47871 26-477): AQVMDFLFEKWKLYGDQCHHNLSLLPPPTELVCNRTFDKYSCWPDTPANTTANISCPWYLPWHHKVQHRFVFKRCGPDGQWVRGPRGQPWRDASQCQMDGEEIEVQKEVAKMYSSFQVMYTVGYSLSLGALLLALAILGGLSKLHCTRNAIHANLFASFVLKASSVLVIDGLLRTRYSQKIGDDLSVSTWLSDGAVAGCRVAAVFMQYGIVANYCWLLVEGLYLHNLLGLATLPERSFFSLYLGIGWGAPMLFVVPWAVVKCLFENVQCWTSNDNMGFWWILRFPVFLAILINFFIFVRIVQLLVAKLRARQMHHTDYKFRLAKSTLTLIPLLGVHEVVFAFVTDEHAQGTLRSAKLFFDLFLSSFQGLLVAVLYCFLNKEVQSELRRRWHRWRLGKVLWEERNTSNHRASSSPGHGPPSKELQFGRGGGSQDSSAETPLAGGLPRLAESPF

| Binder | In vitro activity relative to native peptide (%), vs. Glucagon (cAMP EC50) (human GCG receptor) | In vitro activity relative to native peptide (%), vs. GIP (cAMP EC50) (human GIP receptor) | In vitro activity relative to native peptide (%), vs. GLP-1 (cAMP EC50) (human GLP-1 receptor) |
| --- | --- | --- | --- |
| H[Aib]QGTFTSDYSIAMDEIHQKDFVNWLLAQC (bridge 16-20) [trigonal agonist of SEQ ID NO: 55] | 0.7% | 2.4% | 27.1% |
| H[Aib]QGTFTSDYSKYLDEKRQKEFVQWLLNTC (bridge 16-20) [trigonal agonist of SEQ ID NO: 51] | 2% | 0.1% | 14.4% |
| H[Aib]QGTFTSDYSKYLCEKRQKEFVQWLLNGGPSSGAPPPSG (bridge 16-20) [trigonal agonist of SEQ ID NO: 36] | 0.39% | 0.2% | 37.4% |
| Y[Aib]QGTFTSDYSKYLDEKRAKEFVQWLLDHHCSSGQPPPS (bridge 16-20) [trigonal agonist of SEQ ID NO: 43] | 88.4% | 3.7% | 12.6% |
| H[Aib]QGTFTSDYSKYLDEKRAKEFVQWLLDHHPSSGQPPPSC (bridge 16-20) [trigonal agonist of SEQ ID NO: 50] | 50.5% | 2.7% | 67.4% |
| H[Aib]EGTFTSDYSIAMDEIHQKDFVNWLLAQC (bridge 16-20) [trigonal agonist of SEQ ID NO: 53] | 8.4% | 1.3% | 161% |
| H[Aib]QGTFTSDVSSYLLGQQQKEFIAWLVKGC [trigonal agonist of SEQ ID NO: 4] | < 0.1% | < 0.1% | 8.5% |
| H[Aib]QGTFTSDYSKYLDECRQKEFVQWLLNGGPSSGAPPPSG (bridge 16-20) [trigonal agonist of SEQ ID NO: 37] | 6.21% | 2.2% | 236% |
| H[Aib]QGTFTSDVSSYLDGQAAKEFIAWLVKGC [trigonal agonist of SEQ ID NO: 1] | < 0.1% | < 0.1% | 3.2% |
| H[Aib]QGTFTSDVSSYLDGQAAKEFVAWLLKGC [trigonal agonist of SEQ ID NO: 6] | < 0.1% | < 0.1% | 17% |
| H[Aib]QGTFTSDYSKYLDEKRQKEFVQWLLDTC (bridge 16-20) [trigonal agonist of SEQ ID NO: 52] | 7.5% | 0.3% | 44.1% |
| H[Aib]QGTFTSDVSSYLLGQQQKEFIAWLVKGGGPSSGAPPPSC [trigonal agonist of SEQ ID NO: 5] | < 0.1% | < 0.1% | 42.1% |
| {Acetyl(2-(4-imidazolyl))}-[Aib]QGTFTSDKSSYLDERAAQDFVQWLLDGGPSSGAPPPSS [trigonal agonist of SEQ ID NO: 38] |  |  | 2.3% |
| H[Aib]QGTFTSDYSIAMDEIHQKDFVNWLLNTKC (bridge 16-20) [trigonal agonist of SEQ ID NO: 35] | < 0.1% | 1.3% | 7.5% |
| H[Aib]QGTFTSDKSKYLDERACQDFVQWLLDGGPSSGAPPPS [trigonal agonist of SEQ ID NO: 40] | < 0.1% | < 0.1% | 75.2% |
| H[Aib]EGTFTSDYSIAMDEIHQKDFVDWLLAEC (bridge 16-20) [trigonal agonist of SEQ ID NO: 54] | 1.4% | 0.1% | 30.6% |
| H[Aib]QGTFTSDYSKYLDEKRQKEFVNWLLAQKC (bridge 16-20) [trigonal agonist of SEQ ID NO: 34] | 0.92% | 0.6% | 19.1% |
| {Acetyl(2-(4-imidazolyl))}-[Aib]QGTFTSDYSICMDEIHQKDFVNWLLNTK (bridge 15-19) [trigonal agonist of SEQ ID NO: 49] | < 0.1% | 3.3% | 29.8% |
| Y[Aib]QGTFTSDYSKYLDEKRAKEFVQWLLDHHPSSGQPPPSC (bridge 16-20) [trigonal agonist of SEQ ID NO: 42] | 206% | 7.8% | 33.9% |
| HGQGTFTSDCSKQLDGQAAQEFVAWLLAGGPSSGAPPPS [trigonal agonist of SEQ ID NO: 44] | < 0.1% | < 0.1% | 1.3% |
| HGQGTFTSDCSKYMDGQAAQDFVAWLLAGGPSSGAPPPS [trigonal agonist of SEQ ID NO: 45] | < 0.1% | < 0.1% | 6.6% |
| HGQGTFTSDCSKYLDGQRAQEFVAWLLAGGPSSGAPPPS [trigonal agonist of SEQ ID NO: 47] | < 0.1% | < 0.1% | 2.4% |
| HGQGTFTSDCSKYLDGQRAQDFVNWLLAGGPSSGAPPPS [trigonal agonist of SEQ ID NO: 48] | < 0.1% | < 0.1% | 1.5% |
| HGQGTFTSDCSKYLDEQHAQEFVAWLLAGGPSSGAPPPS [trigonal agonist of SEQ ID NO: 46] | < 0.1% | < 0.1% | 1.4% |
| H[Aib]QGTFTSDYSKYLDGQHAQCFVAWLLAGGGPSSGAPPPS [trigonal agonist of SEQ ID NO: 39] | 0.53% | < 0.1% | 13.9% |
| H[Aib]QGTFTSDKSKYLDECAAQDFVQWLLDGGPSSGAPPPS [trigonal agonist of SEQ ID NO: 41] | < 0.1% | < 0.1% | 34.3% |
